{"source": "paper PMC8926328", "molecular_target": "HBsAg-SpyCatcher VLPs (hepatitis B virus)", "experiment": "SDS-PAGE of the covalent conjugate", "data": [{"substance": "RBD-SpyTag (from UniProt P0DTC2) (domain or fragment)", "values": [{"measurement": "fraction unconjugated", "result": "< 20", "unit": "%"}]}]}
